Assay results reported in the RNAGym collection of RNA variant scans (doi:10.1093/molbev/msab373).

B1: Azoarcus group I ribozyme (parent)
chain: GUGCCUUGCGCCGGGAAACCACGCAAGGGAUGGUGUCAAAUUCGGCGAAACCUAAGCGCCCGCCCGGGCGUAUGGCAACGCCGAGCCAAGCUUCGGCGCCUGCGCCGAUGAAGGUGUAGAGACUAGACGGCACCCACCUAAGGCAAACGCUAUGGUGAAGGCAUAGUCCAGGGAGUGGCGAAAGUCACACAAACCGG

Variants of: B1
Experiment: reverse-splicing fitness (ratio to wild type); higher = more active; in vitro selection; Mg2+ level not given
Procedure, shortened: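 An in vitro group I ribozyme library with randomized positions was T7-transcribed and gel-purified. In triplicate, 10 pmol RNA in EPPS pH 7.5 was reacted with 50 pmoles of a 30-nt RNA substrate for 1 h at 37 °C across several added MgCl2 levels (1–48 mM), then stopped with EDTA. Products were reverse transcribed from a substrate-complementary primer, PCR-amplified and sequenced (HiSeq 4000). Fitness is a variant's read proportion after selection over that before, normalised to wild type.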

| Variant | reverse-splicing fitness |
| --- | --- |
| GUGCCUUGCGCCGGGAAACCACGCAAGGGAUGGUGUCAAAUUCGGCGAAACCUAAGCGCCCGCCCGGGCGUAUGGCAACGCUGAGCCAAGCUUCGGCGCCUGCGCCGAUGCAGGUGUAGCGACUAGACGGCACCCACCUAAGGCAAACGCUAUGGUGAAGGCAUAGUCUAGGGAGAGGCGAAAGUCACACAAACCGG | 0.018 |
| GUGCCUUGCGCCGGGAAACCACGCAAGGGAUGGUGUCAAAUUCGGCGAAACCUAAGCGCCCGCCCGGGCGUAUGGCAACGCUGAGCCAAGCUUCGGCGCCUGCGCCGAUGCAGGUGUAGCGACUAGACGGCACCCACCUAAGGCAAACGCUAUGGUGAAGGCAUAGUCUAGGGAGCGGCGAAAGUCACACAAACCGG | 0.0145 |
| GUGCCUUGCGCCGGGAAACCACGCAAGGGAUGGUGUCAAAUUCGGCGAAACCUAAGCGCCCGCCCGGGCGUAUGGCAACGCUGAGCCAAGCUUCGGCGCCUGCGCCGAUGCAGGUGUAGCGACUAGACGGCACCCACCUAAGGCAAACGCUAUGGUGAAGGCAUAGUCUAGGGAGGGGCGAAAGUCACACAAACCGG | 0.00583 |
| GUGCCUUGCGCCGGGAAACCACGCAAGGGAUGGUGUCAAAUUCGGCGAAACCUAAGCGCCCGCCCGGGCGUAUGGCAACGCUGAGCCAAGCUUCGGCGCCUGCGCCGAUGCAGGUGUAGCGACUAGACGGCACCCACCUAAGGCAAACGCUAUGGUGAAGGCAUAGUCGAGGGAGAGGCGAAAGUCACACAAACCGG | 0.0173 |
| GUGCCUUGCGCCGGGAAACCACGCAAGGGAUGGUGUCAAAUUCGGCGAAACCUAAGCGCCCGCCCGGGCGUAUGGCAACGCUGAGCCAAGCUUCGGCGCCUGCGCCGAUGCAGGUGUAGCGACUAGACGGCACCCACCUAAGGCAAACGCUAUGGUGAAGGCAUAGUCGAGGGAGCGGCGAAAGUCACACAAACCGG | 0.0186 |
| GUGCCUUGCGCCGGGAAACCACGCAAGGGAUGGUGUCAAAUUCGGCGAAACCUAAGCGCCCGCCCGGGCGUAUGGCAACGCUGAGCCAAGCUUCGGCGCCUGCGCCGAUGCAGGUGUAGCGACUAGACGGCACCCACCUAAGGCAAACGCUAUGGUGAAGGCAUAGUCGAGGGAGGGGCGAAAGUCACACAAACCGG | 0.00563 |
| GUGCCUUGCGCCGGGAAACCACGCAAGGGAUGGUGUCAAAUUCGGCGAAACCUAAGCGCCCGCCCGGGCGUAUGGCAACGCUGAGCCAAGCUUCGGCGCCUGCGCCGAUGCAGGUGUAGCGACUAGACGGCACCCACCUAAGGCAAACGCUAUGGUGAAGGCAUAGUCAAGGGAGCGGCGAAAGUCACACAAACCGG | 0.0189 |
| GUGCCUUGCGCCGGGAAACCACGCAAGGGAUGGUGUCAAAUUCGGCGAAACCUAAGCGCCCGCCCGGGCGUAUGGCAACGCUGAGCCAAGCUUCGGCGCCUGCGCCGAUGCAGGUGUAGCGACUAGACGGCACCCACCUAAGGCAAACGCUAUGGUGAAGGCAUAGUCAAGGGAGAGGCGAAAGUCACACAAACCGG | 0.016 |
| GUGCCUUGCGCCGGGAAACCACGCAAGGGAUGGUGUCAAAUUCGGCGAAACCUAAGCGCCCGCCCGGGCGUAUGGCAACGCUGAGCCAAGCUUCGGCGCCUGCGCCGAUGCAGGUGUAGCGACUAGACGGCACCCACCUAAGGCAAACGCUAUGGUGAAGGCAUAGUCAAGGGAGGGGCGAAAGUCACACAAACCGG | 0.00546 |
| GUGCCUUGCGCCGGGAAACCACGCAAGGGAUGGUGUCAAAUUCGGCGAAACCUAAGCGCCCGCCCGGGCGUAUGGCAACGCUGAGCCAAGCUUCGGCGCCUGCGCCGAUGCAGGUGUAGCGACUAGACGGCACCCACCUAAGGCAAACGCUAUGGUGAAGGCAUAGUCGAGGGAGUGGCGAAAGUCACACAAACCGG | 0.00813 |
| GUGCCUUGCGCCGGGAAACCACGCAAGGGAUGGUGUCAAAUUCGGCGAAACCUAAGCGCCCGCCCGGGCGUAUGGCAACGCUGAGCCAAGCUUCGGCGCCUGCGCCGAUGCAGGUGUAGCGACUAGACGGCACCCACCUAAGGCAAACGCUAUGGUGAAGGCAUAGUCAAGGGAGUGGCGAAAGUCACACAAACCGG | 0.00788 |
| GUGCCUUGCGCCGGGAAACCACGCAAGGGAUGGUGUCAAAUUCGGCGAAACCUAAGCGCCCGCCCGGGCGUAUGGCAACGCUGAGCCAAGCUUCGGCGCCUGCGCCGAUGCAGGUGUAGCGACUAGACGGCACCCACCUAAGGCAAACGCUAUGGUGAAGGCAUAGUCUAGGGAGUGGCGAAAGUCACACAAACCGG | 0.0127 |
| GUGCCUUGCGCCGGGAAACCACGCAAGGGAUGGUGUCAAAUUCGGCGAAACCUAAGCGCCCGCCCGGGCGUAUGGCAACGCUGAGCCAAGCUUCGGCGCCUGCGCCGAUGCAGGUGUAGCGACUAGACGGCACCCACCUAAGGCAAACGUUAUGGUGAAGGCAUAGUCCAGGGAGAGGCGAAAGUCACACAAACCGG | 0.00888 |
| GUGCCUUGCGCCGGGAAACCACGCAAGGGAUGGUGUCAAAUUCGGCGAAACCUAAGCGCCCGCCCGGGCGUAUGGCAACGCUGAGCCAAGCUUCGGCGCCUGCGCCGAUGCAGGUGUAGCGACUAGACGGCACCCACCUAAGGCAAACGUUAUGGUGAAGGCAUAGUCCAGGGAGCGGCGAAAGUCACACAAACCGG | 0.0168 |
| GUGCCUUGCGCCGGGAAACCACGCAAGGGAUGGUGUCAAAUUCGGCGAAACCUAAGCGCCCGCCCGGGCGUAUGGCAACGCUGAGCCAAGCUUCGGCGCCUGCGCCGAUGCAGGUGUAGCGACUAGACGGCACCCACCUAAGGCAAACGUUAUGGUGAAGGCAUAGUCCAGGGAGGGGCGAAAGUCACACAAACCGG | 0.00627 |
